Experimental data reported in patent US20230406950A1 (LYVGEN BIOPHARMA, published 2023).
Values belong to the binder of their own block, whether it stands above or below them.

Columns and labels:
[1] = target: T1, human CD40 expressed on CHO cells (human, UniProt P25942 21-277); test: FACS on CHO cells expressing human CD40 (MFI)
T1 construct: whole, on cells
Protocol: (§1) Anti-CD40/CD137 bi-specific antibodies were analyzed by FACS for their binding properties to human CD40 and/or human CD137 expressed on CHO cells. Briefly, cultured cells were harvested, counted and cell viability was evaluated using the Trypan Blue exclusion method. Viable cells were then adjusted to 2×10⁶ cells per mL in PBS containing 2% BSA. 100 μL of this cell suspension were further aliquoted per well into a V-bottom 96-well plate. […] After incubation for 2 hours at 4° C., cells were centrifuged (3 min, 1000×g), washed with 250 μL/well BSA-containing FACS Stain Buffer, resuspended and incubated for an additional 1 hour at 4° C. with 100 μL/well fluorochrome-conjugated anti-IgG antibody for detection of the bisepecific antibody. Cells were then washed with 250 μL/well BSA-containing FACS Stain Buffer, resuspended in 100 μL/well FACS Stain Buffer, acquired and analyzed using a FACS machine. Binding of the bispecific antibodies to human CD40 or human CD137 expressing CHO cells were evaluated and the mean fluorescence intensity is plotted in histograms or dot plots.

[2] = target: T2, human CD137 expressed on cells (human, UniProt Q07011 24-255); test: FACS on CHO cells expressing human CD137 (MFI)
T2 construct: whole, on cells; also called 4-1BB; TNFRSF9
T2 sequence (Q07011 24-255): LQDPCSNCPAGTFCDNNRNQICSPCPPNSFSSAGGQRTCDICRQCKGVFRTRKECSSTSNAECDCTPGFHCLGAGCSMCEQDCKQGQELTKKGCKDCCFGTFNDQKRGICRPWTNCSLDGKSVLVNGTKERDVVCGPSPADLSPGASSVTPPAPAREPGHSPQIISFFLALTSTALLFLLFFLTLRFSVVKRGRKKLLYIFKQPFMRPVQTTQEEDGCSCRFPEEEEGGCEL
Protocol: as §1

[3] = target: T2, human CD137 expressed on cells; test: FACS on CHO cells expressing human CD137 (MFI); remark: listed apart in the source
Protocol: as §1, with “Anti-OX40/CD137” for “Anti-CD40/CD137”, “OX40” for “CD40”

[4] = target: T3, human PD-L1 expressed on cells (human, UniProt Q9NZQ7 19-290); test: flow cytometry (FACS), MFI, CHO cells expressing human PD-L1
T3 construct: whole, on cells; also called human PD-L1 expressed on CHO cells; Raji-PD-L1 cells
T3 sequence (Q9NZQ7 19-290): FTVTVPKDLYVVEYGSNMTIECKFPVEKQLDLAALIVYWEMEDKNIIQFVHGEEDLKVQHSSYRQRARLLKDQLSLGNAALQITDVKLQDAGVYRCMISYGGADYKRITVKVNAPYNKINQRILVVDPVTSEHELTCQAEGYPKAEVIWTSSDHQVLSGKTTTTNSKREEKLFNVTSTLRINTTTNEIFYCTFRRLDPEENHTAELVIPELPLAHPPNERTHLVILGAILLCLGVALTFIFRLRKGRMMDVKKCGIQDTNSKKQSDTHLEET
Protocol: as §1, with “Exemplary anti-PD-1/CD137” for “Anti-CD40/CD137”, “PD-1” for “CD40”, “1000× g),” for “1000×g),”
(§2) Exemplary anti-PD-L1/CD137 bi-specific antibodies were analyzed by FACS for their binding properties to human PD-L1 or human CD137 expressed on CHO cells, following the procedures disclosed in Examples 1 above.

[5] = target: T2, human CD137 expressed on cells; test: flow cytometry (FACS), MFI, CHO cells expressing human CD137
Procedure, shortened: (§3)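 Viable CHO cells, 2×10⁶ cells/mL in PBS with 2% BSA, incubated with bispecific antibodies for 2 h at 4° C. Bound antibody detected with fluorochrome-conjugated anti-IgG, 1 h at 4° C. Read-out is mean fluorescence intensity by flow cytometry.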

[6] = target: T2, human CD137 expressed on cells; test: FACS on CHO cells expressing human CD137 (MFI); remark: listed apart in the source
Protocol: as §1

[7] = target: T2, human CD137 expressed on cells; test: FACS on CHO cells expressing human CD137 (MFI); remark: listed apart in the source
Protocol: as §1, with “Anti-GITR/CD137” for “Anti-CD40/CD137”, “GITR” for “CD40”, “1000× g),” for “1000×g),”

[8] = target: T2, human CD137 expressed on cells; test: FACS on CHO cells expressing human CD137 (MFI); remark: listed apart in the source
Protocol: as §1, with “Anti-GITR/CD137” for “Anti-CD40/CD137”, “GITR” for “CD40”, “1000× g),” for “1000×g),”

[9] = target: T2, human CD137 expressed on cells; test: FACS on CHO cells expressing human CD137 (MFI); remark: listed apart in the source
Protocol: as §1, with “Anti-OX40/CD137” for “Anti-CD40/CD137”, “OX40” for “CD40”

[10] = target: T4, human PD-1 expressed on cells (human, UniProt Q15116 25-288); test: flow cytometry (FACS), MFI, CHO cells expressing human PD-1
T4 construct: whole, on cells; also called human PD-1 over-expressed on the CHO cells; Jurkat/NFkB-Luci/PD-1 cells
T4 sequence (Q15116 25-288): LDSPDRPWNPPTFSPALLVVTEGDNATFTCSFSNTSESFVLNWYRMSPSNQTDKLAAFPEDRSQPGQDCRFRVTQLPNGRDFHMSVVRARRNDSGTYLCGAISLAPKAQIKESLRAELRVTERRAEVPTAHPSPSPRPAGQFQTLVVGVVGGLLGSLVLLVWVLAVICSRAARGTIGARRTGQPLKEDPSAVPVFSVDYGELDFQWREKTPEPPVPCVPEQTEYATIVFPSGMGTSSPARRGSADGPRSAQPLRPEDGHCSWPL
Procedure, shortened: as §3

[11] = target: T2, human CD137 expressed on cells; test: flow cytometry (FACS), MFI, CHO cells expressing human CD137; remark: listed apart in the source
Protocol: as §1, with “Exemplary anti-PD-1/CD137” for “Anti-CD40/CD137”, “PD-1” for “CD40”, “1000× g),” for “1000×g),”
as §2

T1 sequence (P25942 21-277): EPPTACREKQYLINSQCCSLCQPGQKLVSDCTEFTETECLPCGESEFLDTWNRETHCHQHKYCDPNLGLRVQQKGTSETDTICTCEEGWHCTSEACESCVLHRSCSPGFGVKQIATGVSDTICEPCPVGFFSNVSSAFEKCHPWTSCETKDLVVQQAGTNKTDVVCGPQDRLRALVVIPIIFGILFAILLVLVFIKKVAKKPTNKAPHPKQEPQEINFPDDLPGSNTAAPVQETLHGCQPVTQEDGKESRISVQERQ

binding result [1]: binds
EC50 (read off the curve) [2]: ~0.05 µg/mL
B2: Ly739 (bispecific antibody, human IgG1, kappa)
heavy: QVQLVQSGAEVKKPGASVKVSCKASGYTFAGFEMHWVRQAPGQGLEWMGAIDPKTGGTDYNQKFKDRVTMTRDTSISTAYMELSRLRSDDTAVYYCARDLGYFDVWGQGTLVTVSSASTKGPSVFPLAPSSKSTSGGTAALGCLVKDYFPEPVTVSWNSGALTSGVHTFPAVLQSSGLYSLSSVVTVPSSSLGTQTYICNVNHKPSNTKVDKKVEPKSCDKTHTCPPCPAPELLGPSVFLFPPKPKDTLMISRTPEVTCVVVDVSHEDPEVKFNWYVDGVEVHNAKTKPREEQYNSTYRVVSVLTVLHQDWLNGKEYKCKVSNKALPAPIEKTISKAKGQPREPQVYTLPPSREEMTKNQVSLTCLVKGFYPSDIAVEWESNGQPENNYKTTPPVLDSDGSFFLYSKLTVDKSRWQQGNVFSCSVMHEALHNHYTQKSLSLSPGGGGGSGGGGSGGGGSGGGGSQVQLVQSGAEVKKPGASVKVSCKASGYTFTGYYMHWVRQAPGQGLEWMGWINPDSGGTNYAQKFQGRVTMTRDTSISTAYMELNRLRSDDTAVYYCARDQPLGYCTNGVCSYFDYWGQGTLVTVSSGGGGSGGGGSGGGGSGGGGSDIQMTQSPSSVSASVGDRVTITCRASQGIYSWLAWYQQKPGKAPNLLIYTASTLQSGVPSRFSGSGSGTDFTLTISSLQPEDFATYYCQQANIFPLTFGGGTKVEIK
light: DIQMTQSPSSLSASVGDRVTITCRASQDIRSNLNWYQQKPGGAVKLLIYYTSRLHSGVPSRFSGSGSGTDYTLTISSLQPEDFATYFCQQSEKLPRTFGGGTKVEIRRTVAAPSVFIFPPSDEQLKSGTASVVCLLNNFYPREAKVQWKVDNALQSGNSQESVTEQDSKDSTYSLSSTLTLSKADYEKHKVYACEVTHQGLSSPVTKSFNRGEC
notes: Anti-CD40/CD137: Ly1630 heavy chain fused to Ly253 scFv (VH-VL); Ly1630 light chain

binding result [4]: binds
binding result [11]: no binding (tested: 10 ug/ml)
B4: Ly076 (antibody, V domains shown)
VH: QVQLVQSGAEVKKPGASVKVSCKASGYTFTDFWMSWVRQAPGQGLEWMGQIYPNTGTTHSNEKFKGRVTMTRDTSTSTVYMELSSLRSEDTAVYYCARSYHISTTPNWFAYWGQGTLVTVSS
VL: DIQMTQSPSSLSASVGDRVTITCKASQNVYKKLEWYQQKPGKVPKVLIYHTNILQTGVPSRFSGSGSGTDYTLTISSLQPEDVATYYCYQWNSGPTFGGGTKVEIK
notes: Humanized anti-PD-L1 parent; also called anti-PD-L1 antibody Ly076

Further lines, the binder ahead of its results:

B1: Ly738 (bispecific antibody, human IgG1, kappa)
heavy: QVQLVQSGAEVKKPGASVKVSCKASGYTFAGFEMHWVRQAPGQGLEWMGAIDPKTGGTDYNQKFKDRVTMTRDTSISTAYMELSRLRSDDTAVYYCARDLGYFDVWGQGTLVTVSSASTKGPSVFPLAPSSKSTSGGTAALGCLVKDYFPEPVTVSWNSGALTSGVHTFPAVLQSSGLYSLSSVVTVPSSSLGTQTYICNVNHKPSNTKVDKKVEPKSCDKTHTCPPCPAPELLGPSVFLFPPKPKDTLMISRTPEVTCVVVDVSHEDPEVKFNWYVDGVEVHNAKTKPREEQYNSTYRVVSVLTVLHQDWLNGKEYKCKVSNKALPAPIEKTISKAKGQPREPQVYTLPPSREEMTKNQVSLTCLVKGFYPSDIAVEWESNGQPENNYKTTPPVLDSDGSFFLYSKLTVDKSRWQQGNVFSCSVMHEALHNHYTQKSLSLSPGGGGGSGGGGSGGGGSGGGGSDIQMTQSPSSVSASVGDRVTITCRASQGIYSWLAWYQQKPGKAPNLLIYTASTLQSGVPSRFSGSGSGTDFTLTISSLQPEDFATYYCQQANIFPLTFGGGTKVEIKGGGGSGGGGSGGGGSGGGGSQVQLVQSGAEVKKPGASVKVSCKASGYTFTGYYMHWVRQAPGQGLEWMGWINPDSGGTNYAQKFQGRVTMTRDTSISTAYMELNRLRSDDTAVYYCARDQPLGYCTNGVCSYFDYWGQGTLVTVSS
light: B2 light
notes: Anti-CD40/CD137: Ly1630 heavy chain fused to Ly253 scFv (VL-VH); Ly1630 light chain
EC50 (read off the curve) [1]: ~0.08 µg/mL
EC50 (read off the curve) [2]: ~0.05 µg/mL

B3: Ly1630 (antibody, V domains shown)
VH: QVQLVQSGAEVKKPGASVKVSCKASGYTFAGFEMHWVRQAPGQGLEWMGAIDPKTGGTDYNQKFKDRVTMTRDTSISTAYMELSRLRSDDTAVYYCARDLGYFDVWGQGTLVTVSS
VL: DIQMTQSPSSLSASVGDRVTITCRASQDIRSNLNWYQQKPGGAVKLLIYYTSRLHSGVPSRFSGSGSGTDYTLTISSLQPEDFATYFCQQSEKLPRTFGGGTKVEIR
notes: Humanized anti-CD137 antibody; also called parent anti-CD137 antibody clone Ly1630; CD137 parental antibody Ly1630
EC50 (read off the curve) [3]: ~0.1 µg/mL
binding result [4]: no binding (tested: 10 ug/ml)
EC50 (read off the curve) [5]: ~0.05 µg/mL
EC50 (read off the curve) [6]: ~0.03 µg/mL
EC50 (read off the curve) [7]: ~0.1 µg/mL
EC50 (read off the curve) [8]: ~0.1 µg/mL
EC50 (read off the curve) [9]: ~0.09 µg/mL
binding result [10]: no binding (tested: 10 ug/ml)
EC50 (read off the curve) [2]: ~0.03 µg/mL
